Experimental findings from publication PMC3310817, “Liver X Receptors Regulate the Transcriptional Activity of the Glucocorticoid Receptor: Implications for the Carbohydrate Metabolism” are described below.

Data set [1] addresses T1, LXRα (recombinant, Active Motif);RXRα (recombinant, Active Motif) (Homo sapiens;Homo sapiens, UniProt Q13133;P19793 1-447;1-462, |). The data set is described as follows: EMSA; GW3965 (enhances binding); EMSA: 10 mM HEPES pH 8.0, 0.1 mM EDTA, 2 mM DTT, 50 mM NaCl, 5 mM MgCl2, 50 mM KCl, 4 mM spermidine, 4% Ficoll, 1 ug poly(dI-dC); preincubation 10 min 4 C, then 15 min room temperature with probe. As to conditions: protein: commercial;commercial; tags: ;; copies: 1;1; label: 32P; blunt. On the technique in general: A gel shift assay detects complexes by their altered migration in electrophoresis.

Data set [2] addresses T1, LXRα (recombinant, Active Motif);RXRα …. The data set is described as follows: EMSA; complex C; EMSA: 10 mM HEPES pH 8.0, 0.1 mM EDTA, 2 mM DTT, 50 mM NaCl, 5 mM MgCl2, 50 mM KCl, 4 mM spermidine, 4% Ficoll, 1 ug poly(dI-dC); preincubation 10 min 4 C, then 15 min room temperature with probe. The conditions noted are these: protein: commercial;commercial; tags: ;; copies: 1;1; label: 32P; blunt.

T1 sequence (Q13133 whole entry, chain 1 of 2): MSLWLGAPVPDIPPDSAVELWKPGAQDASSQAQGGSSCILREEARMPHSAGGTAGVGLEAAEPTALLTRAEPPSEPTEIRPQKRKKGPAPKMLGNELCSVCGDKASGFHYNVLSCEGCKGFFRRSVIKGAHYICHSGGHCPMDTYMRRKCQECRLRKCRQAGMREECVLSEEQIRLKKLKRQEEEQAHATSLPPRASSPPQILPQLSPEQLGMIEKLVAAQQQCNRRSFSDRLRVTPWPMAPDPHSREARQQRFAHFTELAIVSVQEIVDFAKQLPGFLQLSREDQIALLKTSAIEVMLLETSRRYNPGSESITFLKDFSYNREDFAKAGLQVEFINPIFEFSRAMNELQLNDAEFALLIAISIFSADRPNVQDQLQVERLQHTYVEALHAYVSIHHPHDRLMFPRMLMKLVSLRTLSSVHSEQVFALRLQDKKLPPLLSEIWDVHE
T1 sequence (P19793 whole entry, chain 2 of 2): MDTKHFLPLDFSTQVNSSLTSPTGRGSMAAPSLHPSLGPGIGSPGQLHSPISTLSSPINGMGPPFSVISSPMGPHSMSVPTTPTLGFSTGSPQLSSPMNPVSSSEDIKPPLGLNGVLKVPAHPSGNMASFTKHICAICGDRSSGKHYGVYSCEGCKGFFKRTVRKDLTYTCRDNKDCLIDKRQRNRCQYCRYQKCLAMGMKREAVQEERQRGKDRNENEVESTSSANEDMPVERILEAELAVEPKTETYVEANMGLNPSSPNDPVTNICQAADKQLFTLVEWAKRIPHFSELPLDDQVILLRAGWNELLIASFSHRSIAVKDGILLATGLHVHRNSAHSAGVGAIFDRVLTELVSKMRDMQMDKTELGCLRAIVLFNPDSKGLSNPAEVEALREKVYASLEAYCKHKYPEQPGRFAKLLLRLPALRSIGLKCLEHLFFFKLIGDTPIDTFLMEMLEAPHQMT

B1: Classic GRE wt (dsDNA)
DNA 1: AGCTGGTACAAACTGTTCTAGCT
DNA 2: AGCTAGAACAGTTTGTACCAGCT
On to B1, for which the binding result in data set [1] is given as “binds”.

B2: G6Pase GRE wt (dsDNA)
DNA 1: GCACTGTCAAGCAGTGTGCCCAAGTTAATAATT
DNA 2: AATTATTAACTTGGGCACACTGCTTGACAGTGC
Consider B2, for which the binding result in data set [2] is listed as “binds”.
